In the experiment the target is calmodulin (recombinant bovine CaM) (bovine, UniProt P62157 1-149). The experiment is described as follows: fluorescence polarisation.

Ends that are not written are not given here.

For {BODIPY TR‑X}-KKKKKRFSFKKSFKLSGFSFKKNKK [MARCKS effector domain (aa 151-175) labeled with BODIPY TR], the binding result is “binds”.
